Here are results for one protein from paper PMC9426602, “The Native Orthobunyavirus Ribonucleoprotein Possesses a Helical Architecture” (mBio, 2022).

The series concerns the molecule itself. The series can be described thus: negative staining EM; purified native RNPs, untreated, in reduced-salt TNE (25 mM NaCl), 1% uranyl acetate.

B1: Bunyamwera virus (BUNV) nucleocapsid protein (NP), as it stands in native ribonucleoproteins (RNPs) purified from virions (natural protein)
chain: MIELEFHDVAANTSSTFDPEVAYANFKRVHTTGLSYDHIRIFYIKGREIKTSLAKRSEWEVTLNLGGWKITVYNTNFPGNRNNPVPDDGLTLHRLSGFLARYLLEKMLKVSEPEKLIIKSKIINPLAEKNGITWNDGEEVYLSFFPGSEMFLGTFRFYPLAIGIYKVQRKEMEPKYLEKTMRQRYMGLEAATWTVSKLTEVQSALTVVSSLGWKKTNVSAAARDFLAKFGINM
notes: the atomic model started from the BUNV NP crystal structure PDB 3ZLA; Many copies of NP form a helical filament around each RNA segment (about 3.4 NPs per turn); the number of copies depends on the segment; The viral RNA is part of the assembly; also called BUNV NP; source: native RNPs from BUNV virions grown in BHK-21 cells; virions disrupted by freeze/thaw, RNPs purified on a 10 to 25% OptiPrep …
For the protein B1, the binding result is recorded as “binds”.
